According to article PMC8517123, “Functional Interaction Between Caveolin 1 and LRRC8-Mediated Volume-Regulated Anion Channel” (Frontiers in Physiology, 2021):

Target: T1, Leucine-rich repeat-containing 8A (human (endogenous in HEK 293), UniProt Q8IWT6 1-810)
T1 construct: LRRC8A, essential subunit of the volume-regulated anion channel (VRAC), endogenous in HEK 293 cells; Endogenous protein in lysate; in cells it is part of heteromeric LRRC8 channels, and other subunits may be present in the precipitate; also called LRRC8A; source: endogenous, HEK 293 lysate (1% Triton X-100)
T1 sequence (looked up): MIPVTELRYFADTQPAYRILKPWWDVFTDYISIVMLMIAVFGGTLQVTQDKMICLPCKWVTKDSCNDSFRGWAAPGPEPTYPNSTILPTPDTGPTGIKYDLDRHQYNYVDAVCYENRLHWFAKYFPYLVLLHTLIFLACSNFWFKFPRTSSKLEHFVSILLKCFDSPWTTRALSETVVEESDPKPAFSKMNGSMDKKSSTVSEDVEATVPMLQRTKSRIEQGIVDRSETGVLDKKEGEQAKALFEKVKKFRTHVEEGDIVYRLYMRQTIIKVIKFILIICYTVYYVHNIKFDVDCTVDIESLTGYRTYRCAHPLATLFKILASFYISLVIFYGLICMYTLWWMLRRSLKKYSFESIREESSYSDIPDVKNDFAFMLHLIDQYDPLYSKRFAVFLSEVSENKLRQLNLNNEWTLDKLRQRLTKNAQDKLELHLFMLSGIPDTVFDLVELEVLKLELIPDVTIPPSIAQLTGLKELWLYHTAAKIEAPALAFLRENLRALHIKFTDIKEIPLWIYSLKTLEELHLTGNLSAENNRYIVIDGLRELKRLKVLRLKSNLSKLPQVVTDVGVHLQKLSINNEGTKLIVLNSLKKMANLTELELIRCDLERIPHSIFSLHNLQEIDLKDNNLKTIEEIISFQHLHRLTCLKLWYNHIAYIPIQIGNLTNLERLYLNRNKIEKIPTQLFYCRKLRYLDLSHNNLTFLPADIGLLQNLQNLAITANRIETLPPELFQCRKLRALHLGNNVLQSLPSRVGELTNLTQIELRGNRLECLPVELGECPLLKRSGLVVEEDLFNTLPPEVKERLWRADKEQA
Assay: co-IP; endogenous proteins; HEK 293 cells exposed to isotonic (300 mOsm/Kg) or hypotonic (255 mOsm/Kg) solution for 7 min at 37°C; lysis in 1% Triton X-100; 100-500 μg protein with 2-4 μg anti-Cav1 or anti-LRRC8A antibody at 4°C overnight, protein A sepharose; western blot
Conditions: partners not purified

LRRC8A/Cav1 ratio, hypotonic vs. isotonic (densitometry of co-IP): 2.2 ratio
B1: Caveolin 1 (natural protein, human (endogenous in HEK 293), UniProt Q03135 1-178, looked up)
chain: MSGGKYVDSEGHLYTVPIREQGNIYKPNNKAMADELSEKQVYDAHTKEIDLVNRDPKHLNDDVVKIDFEDVIAEPEGTHSFDGIWKASFTTFTVTKYWFYRLLSALFGIPMALIWGIYFAILSFLHIWAVVPCIKSFLIEIQCISRVYSIYVHTVCDPLFEAVGKIFSNVRINLQKEI
notes: Caveolin 1, endogenous in HEK 293 cells; also called Cav1; source: endogenous, HEK 293 lysate (1% Triton X-100)
